Test results from the Human Domainome abundance scans (Beltran et al. 2025).
± gives the uncertainty stated by the source.

B1: Calcium-binding protein 2, residues 155 to 219; numbered along this chain, Q9NPB3 (parent)
chain: RELRDAFREFDTNGDGRISVGELRAALKALLGERLSQREVDEILQDVDLNGDGLVDFEEFVRMMS

Variants of: B1
Test: abundance fitness (aPCA) (normalised: wild type 0, dead -1); higher = more abundant; growth selection in yeast, the domain comes from the species named
Conditions: Homo sapiens

Abundance fitness of substitutions, site by site:
E33: Y -0.119 ± 0.19 | F -0.109 ± 0.16 | A 0.002 ± 0.056 | K 0.037 ± 0.21 | Q -0.009 ± 0.071 | S -0.045 ± 0.068 | M -0.049 ± 0.12 | D 0.074 ± 0.092 | P -0.007 ± 0.08 | C 0.006 ± 0.094 | I -0.074 ± 0.16 | L -0.195 ± 0.059 | T -0.032 ± 0.056
R38: Y -0.114 ± 0.14 | Q -0.212 ± 0.21 | T -0.052 ± 0.076 | A 0.001 ± 0.068 | S 0.001 ± 0.08 | E -0.232 ± 0.17 | K -0.67 ± 0.47 | L -0.053 ± 0.068 | W -0.107 ± 0.061 | N 0.085 ± 0.1 | F -0.104 ± 0.2 | D 0.1 ± 0.075 | P -0.056 ± 0.058 | G 0.014 ± 0.042 | V -0.021 ± 0.071 | I 0.03 ± 0.069 | C -0.079 ± 0.08 | M -0.112 ± 0.1
A29: K 0.066 ± 0.14 | I -0.204 ± 0.21 | H -0.149 ± 0.33 | M -0.049 ± 0.12 | W -0.034 ± 0.067 | T -0.023 ± 0.07 | Q -0.04 ± 0.11 | L -0.051 ± 0.063 | Y -0.214 ± 0.21 | F -0.208 ± 0.12 | E -0.096 ± 0.29 | V -0.27 ± 0.083 | R 0.047 ± 0.054 | G -0.135 ± 0.053 | S -0.02 ± 0.089 | P -0.497 ± 0.089 | N -0.438 ± 0.28
S36: R -0.004 ± 0.057 | E 0.024 ± 0.07 | I 0 ± 0.43 | P -0.107 ± 0.065 | T 0.012 ± 0.12 | L 0.025 ± 0.054 | G -0.093 ± 0.055 | N -0.197 ± 0.14 | Y -0.263 ± 0.18 | V 0.07 ± 0.064 | F -0.085 ± 0.13 | Q 0.047 ± 0.1 | K 0.047 ± 0.11 | A 0.041 ± 0.066 | M -0.092 ± 0.093 | W -0.177 ± 0.07 | H -0.564 ± 0.28
G32: M -0.567 ± 0.12 | D -0.29 ± 0.17 | K -0.206 ± 0.1 | L -0.64 ± 0.12 | T -0.526 ± 0.15 | W -0.282 ± 0.1 | I -0.438 ± 0.32 | E -0.522 ± 0.083 | P -0.026 ± 0.3 | N -0.246 ± 0.12 | Y -0.269 ± 0.32 | S -0.453 ± 0.083 | F -0.275 ± 0.12 | C -0.514 ± 0.2 | R -0.258 ± 0.067 | V -0.429 ± 0.19
N50: Y -0.419 ± 0.16 | M -0.833 ± 0.2 | T -0.022 ± 0.084 | A -0.056 ± 0.077 | K 0.028 ± 0.068 | D 0.186 ± 0.077 | L -0.232 ± 0.062 | E -0.19 ± 0.061 | Q -0.014 ± 0.09 | W -0.627 ± 0.067 | V -0.254 ± 0.061 | S -0.092 ± 0.067 | P -0.2 ± 0.062 | I -0.488 ± 0.12 | C 0.032 ± 0.12 | F -0.346 ± 0.14
L31: F 0.047 ± 0.13 | V -0.048 ± 0.074 | G 0.076 ± 0.048 | Q 0.086 ± 0.082 | R -0.043 ± 0.091 | K 0.134 ± 0.095 | Y -0.064 ± 0.18 | T 0.074 ± 0.1 | M 0.169 ± 0.067 | P 0.028 ± 0.079 | I -0.061 ± 0.14 | H -0.021 ± 0.13 | E 0.069 ± 0.082 | D -0.164 ± 0.19 | A 0.127 ± 0.059 | W -0.26 ± 0.16
V40: M 0.048 ± 0.091 | G -0.055 ± 0.065 | D 0.043 ± 0.13 | I 0.047 ± 0.19 | T -0.187 ± 0.12 | S -0.011 ± 0.073 | F -0.086 ± 0.24 | C -0.086 ± 0.097 | E 0.169 ± 0.07 | A 0.006 ± 0.07 | Q 0.063 ± 0.071 | W 0.041 ± 0.055 | Y -0.117 ± 0.23 | K -0.04 ± 0.082 | R 0.108 ± 0.045 | H 0.038 ± 0.095
Q37: N 0.221 ± 0.25 | A 0.003 ± 0.088 | H -0.504 ± 0.27 | G -0.072 ± 0.072 | P 0.266 ± 0.16 | W -0.031 ± 0.099 | D -0.351 ± 0.42 | M -0.278 ± 0.14 | T 0.021 ± 0.082 | E 0.06 ± 0.098 | S -0.104 ± 0.13 | C -0.533 ± 0.25 | L -0.017 ± 0.079 | R -0.087 ± 0.077 | K 0.022 ± 0.14
R34: E 0.14 ± 0.076 | P 0.01 ± 0.12 | G 0.032 ± 0.077 | M -0.207 ± 0.088 | V -0.129 ± 0.088 | L -0.177 ± 0.06 | C 0.056 ± 0.1 | A 0.045 ± 0.084 | S -0.019 ± 0.071 | K 0.187 ± 0.092 | N 0.043 ± 0.3 | W -0.558 ± 0.22 | F -0.298 ± 0.24 | T 0.018 ± 0.062 | Q 0.088 ± 0.11
Q45: M -0.141 ± 0.092 | D -0.144 ± 0.092 | R 0.054 ± 0.072 | A -0.069 ± 0.061 | H -0.013 ± 0.22 | W -0.109 ± 0.076 | T 0.003 ± 0.067 | E -0.076 ± 0.092 | Y -0.16 ± 0.12 | V -0.108 ± 0.068 | I -0.01 ± 0.13 | F -0.263 ± 0.097 | K -0.215 ± 0.19 | S -0.147 ± 0.096 | P -0.133 ± 0.073 | G -0.19 ± 0.12 | L 0.015 ± 0.064
D46: K -0.148 ± 0.13 | Q -0.152 ± 0.089 | T 0.042 ± 0.1 | W -0.446 ± 0.08 | V -0.343 ± 0.083 | S -0.123 ± 0.069 | E -0.155 ± 0.078 | L -0.326 ± 0.1 | Y -0.475 ± 0.22 | I -0.408 ± 0.12 | R -0.493 ± 0.066 | F -0.321 ± 0.11 | M -0.42 ± 0.076 | H -0.366 ± 0.16 | N -0.2 ± 0.11
L35: P -0.02 ± 0.087 | E -0.109 ± 0.12 | H 0.061 ± 0.18 | I 0.087 ± 0.15 | M -0.399 ± 0.13 | T 0.028 ± 0.14 | R 0.096 ± 0.069 | N 0.091 ± 0.26 | Y 0.015 ± 0.16 | Q 0.043 ± 0.12 | A 0.1 ± 0.082 | D 0.064 ± 0.076 | C -0.113 ± 0.18 | G 0.088 ± 0.069 | S -0.031 ± 0.073 | K 0.244 ± 0.17 | W 0.045 ± 0.087 | V -0.015 ± 0.089 | F -0.257 ± 0.12
G51: T 0.006 ± 0.11 | E 0.181 ± 0.063 | M 0.047 ± 0.071 | K 0.014 ± 0.17 | H -0.071 ± 0.15 | D 0.057 ± 0.16 | F -0.269 ± 0.18 | P 0.151 ± 0.1 | A 0.062 ± 0.054 | N 0.098 ± 0.12 | R -0.085 ± 0.04 | L 0.06 ± 0.061
D41: H -0.437 ± 0.11 | Q -0.365 ± 0.17 | Y 0.03 ± 0.2 | V -0.237 ± 0.076 | I -0.184 ± 0.15 | G -0.162 ± 0.087 | E -0.077 ± 0.083 | P -0.221 ± 0.14 | M -0.302 ± 0.12 | C -0.059 ± 0.14 | R -0.15 ± 0.062 | K -0.095 ± 0.062 | A -0.151 ± 0.071 | N -0.506 ± 0.48 | W -0.158 ± 0.075 | L -0.305 ± 0.092 | T -0.104 ± 0.056
L44: R -0.178 ± 0.09 | D -0.064 ± 0.14 | H 0.097 ± 0.3 | G -0.01 ± 0.071 | V 0 ± 0.087 | K 0.055 ± 0.14 | E -0.123 ± 0.14 | A 0.116 ± 0.067 | T 0 ± 0.12 | P -0.323 ± 0.17 | W -0.496 ± 0.25 | M -0.219 ± 0.21 | I 0.072 ± 0.15
I43: H 0.161 ± 0.17 | K 0.053 ± 0.067 | S 0.08 ± 0.063 | R 0.03 ± 0.065 | E 0.038 ± 0.12 | F -0.282 ± 0.29 | N 0.053 ± 0.18 | W -0.142 ± 0.056 | Y -0.345 ± 0.33 | T 0.092 ± 0.084 | P -0.032 ± 0.12 | M -0.017 ± 0.074 | Q 0.099 ± 0.11 | C -0.009 ± 0.14 | G 0.123 ± 0.069 | V 0.01 ± 0.084 | A 0.254 ± 0.091
V47: N -0.211 ± 0.06 | H 0.057 ± 0.12 | Y -0.01 ± 0.058 | A -0.143 ± 0.055 | D -0.236 ± 0.053 | I -0.204 ± 0.048 | T -0.041 ± 0.069 | P -0.394 ± 0.049 | F -0.15 ± 0.051 | K -0.064 ± 0.11 | Q 0.013 ± 0.1 | M -0.303 ± 0.088 | E -0.137 ± 0.056 | W -0.199 ± 0.072 | L -0.475 ± 0.049 | C -0.241 ± 0.088
E42: D -0.166 ± 0.12 | A -0.183 ± 0.068 | C -0.074 ± 0.2 | V -0.108 ± 0.088 | S -0.136 ± 0.077 | R -0.08 ± 0.089 | Q -0.272 ± 0.1 | Y -0.309 ± 0.29 | L -0.175 ± 0.066 | M -0.143 ± 0.14 | K -0.178 ± 0.15 | P -0.301 ± 0.098 | I -0.204 ± 0.11 | G -0.081 ± 0.052 | W -0.183 ± 0.087
D48: N 0.122 ± 0.13 | E 0.131 ± 0.1 | S 0.109 ± 0.087 | R 0.185 ± 0.05 | Y 0.042 ± 0.099 | W -0.103 ± 0.065 | G -0.529 ± 0.081 | F -0.434 ± 0.27 | L -0.015 ± 0.066 | A 0.068 ± 0.098 | P -0.231 ± 0.086 | V 0.092 ± 0.048 | K 0.152 ± 0.082 | I 0.105 ± 0.41 | M 0.05 ± 0.11 | T 0.057 ± 0.098 | H 0.108 ± 0.11 | Q 0.127 ± 0.074
L30: K 0.134 ± 0.083 | N 0.151 ± 0.1 | I -0.134 ± 0.16 | R 0.069 ± 0.052 | W -0.245 ± 0.055 | C 0.057 ± 0.092 | S -0.216 ± 0.11 | D -0.101 ± 0.27 | T -0.008 ± 0.066 | Q 0.015 ± 0.094 | A -0.255 ± 0.072 | F -0.17 ± 0.083 | E -0.091 ± 0.1 | M -0.595 ± 0.35 | V -0.053 ± 0.093 | P -0.158 ± 0.094
